Values joined by “and” are separate entries in the source; they are usually repeats but may differ in a detail not shown here. Identical values can stand only once.
Experiments:
[1] = substrate: NC(=O)c1ccc[n+]([C@@H]2O[C@H](COP(=O)([O-])OP(=O)(O)OC[C@H]3O[C@@H](n4cnc5c(N)ncnc54)[C@H](O)[C@@H]3O)[C@@H](O)[C@H]2O)c1; test: Enzyme kinetics with variable NAD^+ (in vitro deacetylation, Michaelis-Menten), SIRT1; format: biochemical, mouse; conditions: other: SIRT1 with the H3K9Ac peptide
Method: (§1) In the case of the SIRT1 enzymatic reaction, 8 µM peptide was incubated in 50 µL reaction buffer containing 10 mM NaCl, 10 mM KCl, 20 mM Tris-HCl pH 8.0, 1.0 mM NAD^+, and 1 mM DTT, with or without 1 µg recombinant SIRT1. The reaction mixtures were incubated for 24 h for SIRT7 or 2 h for SIRT1 at 37 °C.
(§2) For enzyme kinetics with variable concentrations of the NAD^+ substrate, an in vitro deacylation assay was performed using wild-type SIRT7 and SIRT1 with serial dilutions of the NAD^+ substrate. The reaction was incubated at 37 °C for the appropriate time, which was within the linear part of the progression curve (60 min for SIRT7 and 10 min for SIRT1). […] Each enzymatic assay was conducted in triplicate, and the resulting data were plotted and fitted to the Michaelis–Menten equation using GraphPad Prism version 8.0.2 (GraphPad Software, Boston, MA, USA).
(§3) The general conditions for electrospray ionization-MS were as follows: nebulizer gas, N2, delivered at 50 psi; nebulizer gas temperature, 250 °C; capillary voltage, 3500 V; and collision gas, G1 grade N2 (Taiyo Nippon Sanso Corporation, Tokyo, Japan).

[2] = substrate: NC(=O)c1ccc[n+]([C@@H]2O[C@H](COP(=O)([O-])OP(=O)(O)OC[C@H]3O[C@@H](n4cnc5c(N)ncnc54)[C@H](O)[C@@H]3O)[C@@H](O)[C@H]2O)c1; test: Enzyme kinetics with variable NAD^+ (in vitro deacylation, Michaelis-Menten), SIRT7 in presence of RNA; format: biochemical, mouse; conditions: for Km: in the presence of RNA; for kcat: NAD^+-dependent deacylation
Method: as §1, §2, §3

B1: SIRT1 (Mus musculus) (protein)
chain: MADEVALALQAAGSPSAAAAMEAASQPADEPLRKRPRRDGPGLGRSPGEPSAAVAPAAAGCEAASAAAPAALWREAAGAAASAEREAPATAVAGDGDNGSGLRREPRAADDFDDDEGEEEDEAAAAAAAAAIGYRDNLLLTDGLLTNGFHSCESDDDDRTSHASSSDWTPRPRIGPYTFVQQHLMIGTDPRTILKDLLPETIPPPELDDMTLWQIVINILSEPPKRKKRKDINTIEDAVKLLQECKKIIVLTGAGVSVSCGIPDFRSRDGIYARLAVDFPDLPDPQAMFDIEYFRKDPRPFFKFAKEIYPGQFQPSLCHKFIALSDKEGKLLRNYTQNIDTLEQVAGIQRILQCHGSFATASCLICKYKVDCEAVRGDIFNQVVPRCPRCPADEPLAIMKPEIVFFGENLPEQFHRAMKYDKDEVDLLIVIGSSLKVRPVALIPSSIPHEVPQILINREPLPHLHFDVELLGDCDVIINELCHRLGGEYAKLCCNPVKLSEITEKPPRPQKELVHLSELPPTPLHISEDSSSPERTVPQDSSVIATLVDQATNNNVNDLEVSESSCVEEKPQEVQTSRNVENINVENPDFKAVGSSTADKNERTSVAETVRKCWPNRLAKEQISKRLEGNQYLFVPPNRYIFHGAEVYSDSEDDVLSSSSCGSNSDSGTCQSPSLEEPLEDESEIEEFYNGLEDDTERPECAGGSGFGADGGDQEVVNEAIATRQELTDVNYPSDKS
notes: HaloTag (N, cleaved yes); made in house; host or cells: E. coli K12 KRX
Question: B1 was tested. Which Km [1] did it give?
Answer: Its Km is 14 µM.

B2: SIRT7 (Mus musculus) (protein)
chain: MAAGGGLSRSERKAAERVRRLREEQQRERLRQVSRILRKAAAERSAEEGRLLAESEDLVTELQGRSRRREGLKRRQEEVCDDPEELRRKVRELAGAVRSARHLVVYTGAGISTAASIPDYRGPNGVWTLLQKGRPVSAADLSEAEPTLTHMSITRLHEQKLVQHVVSQNCDGLHLRSGLPRTAISELHGNMYIEVCTSCIPNREYVRVFDVTERTALHRHLTGRTCHKCGTQLRDTIVHFGERGTLGQPLNWEAATEAASKADTILCLGSSLKVLKKYPRLWCMTKPPSRRPKLYIVNLQWTPKDDWAALKLHGKCDDVMQLLMNELGLEIPVYNRWQDPIFSLATPLRAGEEGSHSRKSLCRSREEAPPGDQSDPLASAPPILGGWFGRGCAKRAKRKKVA
notes: as for B1
Question: B2 was tested. Which kcat/Km ([2]; other: acetyl H3K18 peptide) did it give?
Answer: The kcat/Km was 0.844 ± 0.024 M⁻¹ s⁻¹.

Question: What about the Km ([2]; other: acetyl H3K18 peptide (H3K18Ac)) of the same protein?
Answer: The Km was 445.3 ± 28.5 µM.

Question: What about the kcat ([2]; other: acetyl H3K18 peptide) of the same protein?
Answer: The kcat was 0.000376 ± 1.52e-05 s⁻¹.

Question: And the kcat/Km ([2]; other: butyryl H3K18 peptide)?
Answer: The kcat/Km was 2.10 ± 0.061 M⁻¹ s⁻¹.

Question: And the kcat ([2]; other: butyryl H3K18 peptide)?
Answer: Its kcat is 0.00143 ± 0.00015 s⁻¹.

Question: And the Km ([2]; other: butyryl H3K18 peptide)?
Answer: The Km was 678.6 ± 83.6 µM.

Question: And the kcat/Km ([2]; other: myristoyl H3K18 peptide)?
Answer: The kcat/Km was 11.9 ± 0.695 M⁻¹ s⁻¹.

Question: What about the kcat ([2]; other: myristoyl H3K18 peptide) of the same protein?
Answer: Its kcat is 0.00183 ± 8.23e-05 s⁻¹.

Question: What about the Km ([2]; other: myristoyl H3K18 peptide) of the same protein?
Answer: Its Km is 153 µM and 153.2 ± 8.8 µM.

Question: What about the kcat/Km ([2]; other: octanoyl H3K18 peptide) of the same protein?
Answer: The kcat/Km was 3.74 ± 0.124 M⁻¹ s⁻¹.

Question: What about the kcat ([2]; other: octanoyl H3K18 peptide) of the same protein?
Answer: The kcat was 0.00176 ± 6.48e-05 s⁻¹.

Question: And the Km ([2]; other: octanoyl H3K18 peptide)?
Answer: The Km was 470.0 ± 16.7 µM.

Question: And the kcat/Km ([2]; other: palmitoyl H3K18 peptide)?
Answer: The kcat/Km was 2.35 ± 0.224 M⁻¹ s⁻¹.

Question: What about the kcat ([2]; other: palmitoyl H3K18 peptide) of the same protein?
Answer: The kcat was 0.00149 ± 0.000101 s⁻¹.

Question: What about the Km ([2]; other: palmitoyl H3K18 peptide) of the same protein?
Answer: The Km was 633 µM and 633.5 ± 37.5 µM.

Question: And the kcat/Km ([2]; other: propionyl H3K18 peptide)?
Answer: The kcat/Km was 10.9 ± 0.633 M⁻¹ s⁻¹.

Question: What about the kcat ([2]; other: propionyl H3K18 peptide) of the same protein?
Answer: The kcat was 0.00202 ± 4.14e-05 s⁻¹.

Question: And the Km ([2]; other: propionyl H3K18 peptide)?
Answer: The Km was 185.1 ± 7.6 µM.

Question: What about the kcat/Km ([2]; other: succinyl H3K18 peptide) of the same protein?
Answer: Its kcat/Km is 2.01 ± 0.390 M⁻¹ s⁻¹.

Question: What about the kcat ([2]; other: succinyl H3K18 peptide) of the same protein?
Answer: Its kcat is 0.000224 ± 1.68e-05 s⁻¹.

Question: And the Km ([2]; other: succinyl H3K18 peptide)?
Answer: Its Km is 114 µM and 114.9 ± 30.4 µM.
